Measurements reported in article PMC10806991, “Substrate promiscuity of Dicer toward precursors of the let-7 family and their 3′-end modifications”.
Changes are numbered by the printed parent chain.

Legend:
[1] = target: ciDicer (catalytically inactive human Dicer) D1320A;D1709A (Homo sapiens) (UniProt Q9UPY3); test: EMSA; details: 5'-monophosphate; 3'-OH; EMSA: 50 mM Tris pH 7.6, 50 mM NaCl, 10% glycerol, 0.05% NP-40, 2 mM DTT, 4 °C, 30 min, 2 pM 32P-RNA; 4-15% native PAGE in …; RNA heated 95 °C and sn
[2] = target: T1, ciDicer (catalytically inactive human Dicer) (Homo sapiens, UniProt Q9UPY3 1-1922, D1320A;D1709A); test: EMSA; EMSA: 50 mM Tris pH 7.6, 50 mM NaCl, 10% glycerol, 0.05% NP-40, 2 mM DTT, 4 °C, 30 min, 2 pM 32P-RNA; 4-15% native PAGE in Tris-glycine; RNA heated 95 °C and snap-cooled; no Mg2+ added to DB buffer; details: protein: recombinant, label: 5'-32P, hairpin
[3] = target: T1, ciDicer (catalytically inactive human …); test: EMSA; range over five mono-U RNAs; individual value only in figure; EMSA: 50 mM Tris pH 7.6, 50 mM NaCl, 10% glycerol, 0.05% NP-40, 2 mM DTT, 4 °C, 30 min, 2 pM 32P-RNA; 4-15% native PAGE in Tris-glycine; RNA heated 95 °C and snap-cooled; no Mg2+ added to DB buffer; details: protein: recombinant; label: 5'-32P; hairpin, 2-nt 3' overhang

T1 sequence (Q9UPY3 whole entry D1320A/D1709A): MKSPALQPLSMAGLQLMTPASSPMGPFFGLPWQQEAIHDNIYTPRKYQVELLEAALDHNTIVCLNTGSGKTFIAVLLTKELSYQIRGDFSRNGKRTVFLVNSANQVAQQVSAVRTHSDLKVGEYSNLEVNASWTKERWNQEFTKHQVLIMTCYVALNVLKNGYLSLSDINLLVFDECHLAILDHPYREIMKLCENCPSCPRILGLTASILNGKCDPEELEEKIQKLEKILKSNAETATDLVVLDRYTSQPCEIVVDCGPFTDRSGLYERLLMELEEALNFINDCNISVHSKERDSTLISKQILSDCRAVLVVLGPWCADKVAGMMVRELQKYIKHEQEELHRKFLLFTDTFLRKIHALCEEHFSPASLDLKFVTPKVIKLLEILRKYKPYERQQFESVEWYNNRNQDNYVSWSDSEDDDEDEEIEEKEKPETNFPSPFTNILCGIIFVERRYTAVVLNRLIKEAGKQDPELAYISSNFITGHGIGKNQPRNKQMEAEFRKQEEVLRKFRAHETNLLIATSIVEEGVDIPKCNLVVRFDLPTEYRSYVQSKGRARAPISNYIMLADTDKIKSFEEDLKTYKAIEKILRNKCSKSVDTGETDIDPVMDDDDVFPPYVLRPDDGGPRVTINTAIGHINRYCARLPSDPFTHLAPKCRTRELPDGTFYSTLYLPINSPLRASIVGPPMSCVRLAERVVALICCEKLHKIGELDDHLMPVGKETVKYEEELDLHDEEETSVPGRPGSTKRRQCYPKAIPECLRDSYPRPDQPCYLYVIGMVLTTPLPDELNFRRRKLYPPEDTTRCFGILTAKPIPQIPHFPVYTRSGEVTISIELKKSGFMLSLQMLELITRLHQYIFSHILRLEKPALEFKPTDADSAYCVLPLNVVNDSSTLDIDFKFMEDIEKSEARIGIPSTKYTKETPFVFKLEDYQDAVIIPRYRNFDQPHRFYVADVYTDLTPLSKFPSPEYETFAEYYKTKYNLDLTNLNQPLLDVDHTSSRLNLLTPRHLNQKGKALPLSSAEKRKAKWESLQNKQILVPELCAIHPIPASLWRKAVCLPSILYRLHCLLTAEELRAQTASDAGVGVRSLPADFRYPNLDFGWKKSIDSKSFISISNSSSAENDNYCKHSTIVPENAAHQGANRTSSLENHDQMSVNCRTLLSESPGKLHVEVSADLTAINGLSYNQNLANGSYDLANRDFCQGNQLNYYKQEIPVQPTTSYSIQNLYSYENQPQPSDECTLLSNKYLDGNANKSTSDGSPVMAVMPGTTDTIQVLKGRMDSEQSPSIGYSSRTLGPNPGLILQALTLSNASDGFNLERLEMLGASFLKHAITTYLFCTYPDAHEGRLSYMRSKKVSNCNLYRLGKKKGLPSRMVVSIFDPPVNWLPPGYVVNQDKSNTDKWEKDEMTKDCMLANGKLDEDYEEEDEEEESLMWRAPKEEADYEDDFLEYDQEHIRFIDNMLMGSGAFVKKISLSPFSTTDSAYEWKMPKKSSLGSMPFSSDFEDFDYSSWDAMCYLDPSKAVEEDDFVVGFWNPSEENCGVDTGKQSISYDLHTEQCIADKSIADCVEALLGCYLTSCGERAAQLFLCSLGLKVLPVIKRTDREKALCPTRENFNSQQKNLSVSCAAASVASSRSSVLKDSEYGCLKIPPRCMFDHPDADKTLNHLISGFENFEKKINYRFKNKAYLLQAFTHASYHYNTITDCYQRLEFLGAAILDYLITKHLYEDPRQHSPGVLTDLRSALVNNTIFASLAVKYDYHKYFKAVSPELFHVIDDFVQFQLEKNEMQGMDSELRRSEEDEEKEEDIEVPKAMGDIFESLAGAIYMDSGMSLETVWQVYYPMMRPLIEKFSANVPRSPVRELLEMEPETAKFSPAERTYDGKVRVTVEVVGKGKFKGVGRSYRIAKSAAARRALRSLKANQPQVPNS
Chain of ciDicer (catalytically inactive human Dicer) D1320A;D1709A (Homo sapiens) (Q9UPY3 whole entry D1320A/D1709A): as above

pre-let-7f-1 (7f1) was tested, and the Kd [1] was 10 nM.

B1: pre-let-7f-2 (7f2) (structured_RNA)
RNA: UGAGGUAGUAGAUUGUAUAGUUUUAGGGUCAUACCCCAUCUUGGAGAUAACUAUACAGUCUACUGUCUUUC
modifications: 5'-monophosphate; 3'-OH
In the case of B1, the Kd ([2]; 1-nt 3' overhang (Group II)) is reported as 17 ± 4 nM.

B2: pre-let-7b (7b) (structured_RNA)
RNA: UGAGGUAGUAGGUUGUGUGGUUUCAGGGCAGUGAUGUUGCCCCUCGGAAGAUAACUAUACAACCUACUGCCUUCC
modifications: 5'-monophosphate; 3'-OH
Work on B2 yielded a Kd ([2]; 1-nt 3' overhang (Group II)) of 13 ± 1 nM.

B3: pre-miR-98 mono-U (structured_RNA)
RNA: UGAGGUAGUAAGUUGUAUUGUUGUGGGGUAGGGAUAUUAGGCCCCAAUUAGAAGAUAACUAUACAACUUACUACUUUCCU
modifications: 5'-monophosphate; 3'-OH; one extra 3' U
With B3 the Kd [3] was ~19 nM.

B4: pre-miR-202 (m202) (structured_RNA)
RNA: UUCCUAUGCAUAUACUUCUUUGAGGAUCUGGCCUAAAGAGGUAUAGGGCAUGGGAAAA
modifications: 5'-monophosphate; 3'-OH
For B4, the Kd ([2]; 14-nt apical loop, 2-nt 3' overhang (Group I)) was 7 ± 2 nM.

B5: pre-let-7i (7i) (structured_RNA)
RNA: UGAGGUAGUAGUUUGUGCUGUUGGUCGGGUUGUGACAUUGCCCGCUGUGGAGAUAACUGCGCAAGCUACUGCCUUGC
modifications: 5'-monophosphate; 3'-OH
For B5, the Kd ([2]; 1-nt 3' overhang (Group II)) was 17 ± 5 nM.

B6: pre-let-7g mono-U (structured_RNA)
RNA: UGAGGUAGUAGUUUGUACAGUUUGAGGGUCUAUGAUACCACCCGGUACAGGAGAUAACUGUACAGGCCACUGCCUUGCU
modifications: 5'-monophosphate; 3'-OH; one extra 3' U
B6 gave a Kd [3] of ~19 nM.

B7: pre-let-7a-1 mono-U (structured_RNA)
RNA: UGAGGUAGUAGGUUGUAUAGUUUUAGGGUCACACCCACCACUGGGAGAUAACUAUACAAUCUACUGUCUUUCU
modifications: 5'-monophosphate; 3'-OH; one extra 3' U
For B7, the Kd [3] was ~19 nM.

B8: pre-let-7a-2 (7a2) (structured_RNA)
RNA: UGAGGUAGUAGGUUGUAUAGUUUAGAAUUACAUCAAGGGAGAUAACUGUACAGCCUCCUAGCUUUCC
modifications: 5'-monophosphate; 3'-OH
B8 showed a Kd ([2]; 2-nt 3' overhang (Group I)) of 12 ± 5 nM.

B9: pre-let-7c (7c) (structured_RNA)
RNA: B8 RNA with A19G, A27G, U33C, A35C, A36U, A42U, G53A, C57U
modifications: 5'-monophosphate; 3'-OH
With B9 the Kd ([2]; 2-nt 3' overhang (Group I)) was 13 ± 4 nM.

B10: pre-let-7d (7d) (structured_RNA)
RNA: AGAGGUAGUAGGUUGCAUAGUUUUAGGGCAGGGAUUUUGCCCACAAGGAGGUAACUAUACGACCUGCUGCCUUUC
modifications: 5'-monophosphate; 3'-OH
For B10, the Kd ([2]; 1-nt 3' overhang (Group II)) was 16 ± 3 nM.

B11: pre-miR-98 (m98) (structured_RNA)
RNA: UGAGGUAGUAAGUUGUAUUGUUGUGGGGUAGGGAUAUUAGGCCCCAAUUAGAAGAUAACUAUACAACUUACUACUUUCC
modifications: 5'-monophosphate; 3'-OH
With B11 the Kd ([2]; 1-nt 3' overhang (Group II)) was 12 ± 7 nM.

B12: pre-let-7b mono-U (structured_RNA)
RNA: UGAGGUAGUAGGUUGUGUGGUUUCAGGGCAGUGAUGUUGCCCCUCGGAAGAUAACUAUACAACCUACUGCCUUCCU
modifications: 5'-monophosphate; 3'-OH; one extra 3' U
In the case of B12, the Kd [3] is reported as ~19 nM.

B13: pre-let-7d mono-U (structured_RNA)
RNA: AGAGGUAGUAGGUUGCAUAGUUUUAGGGCAGGGAUUUUGCCCACAAGGAGGUAACUAUACGACCUGCUGCCUUUCU
modifications: 5'-monophosphate; 3'-OH; one extra 3' U
In the case of B13, the Kd [3] is reported as ~19 nM.

B14: pre-let-7g (7g) (structured_RNA)
RNA: UGAGGUAGUAGUUUGUACAGUUUGAGGGUCUAUGAUACCACCCGGUACAGGAGAUAACUGUACAGGCCACUGCCUUGC
modifications: 5'-monophosphate; 3'-OH
B14 was tested, and the Kd ([2]; 1-nt 3' overhang (Group II)) was 12 ± 2 nM.

B15: pre-let-7e (7e) (structured_RNA)
RNA: UGAGGUAGGAGGUUGUAUAGUUGAGGAGGACACCCAAGGAGAUCACUAUACGGCCUCCUAGCUUUCC
modifications: 5'-monophosphate; 3'-OH
Work on B15 yielded a Kd ([2]; 2-nt 3' overhang (Group I)) of 12 ± 2 nM.

B16: pre-let-7a-3 (7a3) (structured_RNA)
RNA: UGAGGUAGUAGGUUGUAUAGUUUGGGGCUCUGCCCUGCUAUGGGAUAACUAUACAAUCUACUGUCUUUC
modifications: 5'-monophosphate; 3'-OH
Molecule B16 has a Kd ([2]; 1-nt 3' overhang (Group II)) of 16 ± 5 nM.

B17: pre-let-7a-1 (7a1) (structured_RNA)
RNA: UGAGGUAGUAGGUUGUAUAGUUUUAGGGUCACACCCACCACUGGGAGAUAACUAUACAAUCUACUGUCUUUC
modifications: 5'-monophosphate; 3'-OH
B17 showed a Kd ([2]; 1-nt 3' overhang (Group II)) of 14 ± 3 nM.
